Measured values: US20230417748A1
“And” between values parts separate entries of the source, which are not always exact repeats. Equal values may be shown once.

Target: SARS-CoV-2 (2019-nCoV) Spike Protein (S1+S2 ECD, His tag) (Sino Biological, 40589-V08B1) (SARS-CoV-2), P0DTC2
Settings: remark: other sources report otherwise

B1: clone 5E9 (antibody, V domains shown)
VH: EVQLVESGGGLVQPGGSLRLSCAASGFTFTTYDMGWVRQAPGKGPEWVSLISSGGSNTWYDDSVKGRFTISRDNSKNTLYLQMNSLRAEDTAVYYCAKEKYPYSDCDYWGQGTLVTVSS
**Q.** How did the O.D. turn out when B1 was run?
**A.** 0.892 O.D. and 0.904 O.D.

B2: clone 6D9 (antibody, V domains shown)
VH: EVQLVESGGGLVQPGGSLRLSCAASGFTFTDYDMGWVRQAPGKGPEWVSLISGDSGNTWYDDSVKGRFTISRDNSKNTLYLQMNSLRAEDTAVYYCAKYRGTTKDYWGQGTLVTVSS
**Q.** B2 was tested. Which O.D. did it give?
**A.** 0.997 O.D. and 0.991 O.D.
